Laboratory results from patent US20240084003A1 (SIMCERE ZAIMING PHARMACEUTICAL, published 2024).
Residue numbers refer to the chain shown, from its start.

T1: monkey CD22 protein (ACROBiosystems, catalog number SI2-R52Ha) (monkey, UniProt F6W485 20-688)
T1 construct: commercial protein; also called monkey CD22-ECD; monkey CD22-ECD-His
T1 sequence: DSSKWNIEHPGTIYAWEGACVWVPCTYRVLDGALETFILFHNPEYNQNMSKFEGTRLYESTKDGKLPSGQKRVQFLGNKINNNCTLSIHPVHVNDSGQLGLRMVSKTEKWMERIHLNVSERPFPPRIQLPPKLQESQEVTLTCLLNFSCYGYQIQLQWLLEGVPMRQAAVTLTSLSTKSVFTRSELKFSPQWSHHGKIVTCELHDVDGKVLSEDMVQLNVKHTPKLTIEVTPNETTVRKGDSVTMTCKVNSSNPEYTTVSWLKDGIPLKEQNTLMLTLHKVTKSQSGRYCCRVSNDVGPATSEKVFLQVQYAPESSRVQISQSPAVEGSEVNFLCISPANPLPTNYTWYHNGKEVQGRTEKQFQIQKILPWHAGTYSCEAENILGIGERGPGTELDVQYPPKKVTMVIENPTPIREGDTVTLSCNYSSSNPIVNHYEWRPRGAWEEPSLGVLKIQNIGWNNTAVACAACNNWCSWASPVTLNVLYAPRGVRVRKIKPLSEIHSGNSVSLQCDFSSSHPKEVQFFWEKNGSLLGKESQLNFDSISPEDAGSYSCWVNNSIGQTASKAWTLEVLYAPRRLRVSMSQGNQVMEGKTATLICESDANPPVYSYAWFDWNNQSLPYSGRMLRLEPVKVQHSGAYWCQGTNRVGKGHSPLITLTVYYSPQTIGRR

B1: F2.70.2 (antibody, human IgG1, lambda, V domains shown)
VH: EVQLVESGGGLVKPGGSLKLSCAASGFTFSDYGMNWFRQAPEKGLEWVAYISRGSHTIYYADTVKGRFTISRDNAKNTLFLQMTSLRSNDTAMYYCVRMAGYYAMDYWGQGTSVTVSS
VL: QLVLTQSSSASFSLGASAKLTCTLSSQHSSYIIEWYQQQPLKPPKYVMELKKDGSHSTGDGIPDRFSGSSSGADRYLSISNIQPEDEAIYICGVGDTIKEQFVYVFGGGTKVTVLG
notes: human-murine chimeric IgG1 lambda
B2: F2.104.10 (antibody, human IgG1, lambda, V domains shown)
VH: B1 VH with L11F, K76E, V114L
VL: B1 VL with L50V, P84S
notes: as for B1
B3: F2.180.16 (antibody, human IgG1, lambda, V domains shown)
VH: EVKLVESGGGLVLPGGSLKISCAASGFTFSDYYMYWIRQTPDKRLEWVAYISNTGYSTFYPDSVKGRFTVSRDNAKNTLYLQMSRLQSEDTAMYYCARHGILYAMDYWGQGTSVTVSS
VL: B1 VL with L2P, H28Y, S30T, I32T, E34G, K52H, H56R, S57H, I89T, V103M
notes: as for B1
B4: F2.121.9 (antibody, human IgG1, lambda, V domains shown)
VH: EVQLVESGGGLVKPGGSLKLSCAASGFTFSDYVMSWIRQTPEKRLEWVATISDAGSYTFYPDNLKGRFTISRDNAKNNLYLQMNHLTSEDTAFYYCAIIYFGNYGGYWGQGTLVTVSV
VL: QAVVTQESALTTSPGGTVVLTCRSNTGAVTTSNYANWVQEKPDHLFTGLIGGTSNRAPGVPVRFSGSLIGDKAALTITGAQTEDDAMYFCALWYSTHWVFGGGTKLTVLG
notes: as for B1
B5: F2.173.9 (antibody, human IgG1, lambda, V domains shown)
VH: EVQLVESGGDLVKPGESLKLSCEASGFTFSNYAMSWVRQTPDRRLEWVATISSIGSFTYYSDSVKGRFTISRDNVKSTLHLQMNNLKSGDTAIYFCARLGVYFDSWGQGTTLTVSS
VL: B1 VL with S30T, I32T, L41H, Y46F, L50I, S57Y, A88T, G95S, T97M, E100D
notes: as for B1
B6: F2.343.16 (antibody, human IgG1, lambda, V domains shown)
VH: QVQLKQSGPGLVQPSQSLSITCTVSGFSLTGYGVQWVRQSPGKGLEWLGVIWGGGGTDYNAAFISRLNIIKDNSKSQVFFKMNSLQADDTAIYYCARYSKYGHFDVWGTGTAVTVSS
VL: QAVVTQESALTTSPGETVTLTCRSSTGAVTTSNYANWVQEKPDHLFTGLIGGTYNRVPGVPARFSGSLIGDKAALTITGAQTEDEAIYFCALWYSNHFWVFGGGTKLTVLG
notes: human-murine chimeric IgG1 lambda; VL name legible
B7: F2.205.9 (antibody, human IgG1, lambda, V domains shown)
VH: QVTLKESGPGILQPSQTLSLTCSFSGFSLSTSGMGVGWIRQPSGKGLEWLAHIWWDDDEYYNPALKSRLTISKDTSKNQVFLKIANVDTADTATYYCARISIPYGYYDWFFDVWGTGTTVTVSA
VL: QAVVTQESALTTSPGETVTLTCRSSTGAVTTRNYANWVQEKPDHLFTGLIGGTNNRAPGVPARFSGSLIGDKAALTITGAQTEDEAIYFCALWYSNHFIFGSGTKVTVLG
notes: as for B6
B8: F2.55.1 (antibody, human IgG1, lambda, V domains shown)
VH: QVTLKESGPGILQPSQTLSLTCSFSGFSLSTFPLGVGWIRQPSGKGLEWLAHVWWNDDDYYNPALKSRLTISKDTSNTRVFLSVASVDTAETATYYCARLNWDRWYFDVWGTGTTVTVSS
VL: QLVLTQSSSASFSLGASAKLTCTLSSQHSAYTVEWYQQQPLKPPKYVMELKKDGSHSTGDGIPDRFSGSSSGADRYLSISNIQPEDEAIYICGVGDTVKEQFVFGGGTKVTVLG
notes: as for B6
B9: F2.151.13 (antibody, human IgG1, lambda, V domains shown)
VH: QVHLQQPGTELMKPGASVKLSCKATGYTFRDYWLEWVKQRPGHGLEWIGEILPGSGNAYYNEKFKGKATFTADTSSNTAYMQLSSLTTEDSAIYYCARVYSNWYFDAWGKGTTVTVSS
VL: B7 VL with R32S, R56Q, T78S, Y94F, F98W, I99V, S102G, V106L
notes: as for B1
B10: HA22-hIgG1 (antibody, V domains shown)
VH: EVQLVESGGGLVKPGGSLKLSCAASGFAFSIYDMSWVRQTPEKCLEWVAYISSGGGTTYYPDTVKGRFTISRDNAKNTLYLQMSSLKSEDTAMYYCARHSGYGTHWGVLFAYWGQGTLVTVSA
VL: DIQMTQTTSSLSASLGDRVTISCRASQDISNYLNWYQQKPDGTVKLLIYYTSILHSGVPSRFSGSGSGTDYSLTISNLEQEDFATYFCQQGNTLPWTFGCGTKLEIKR

Columns and labels:
[1] = molecular target: T2, CD22 on cynomolgus monkey peripheral blood B cells (cynomolgus monkey (Macaca fascicularis)); experiment: FACS, cynomolgus PBMC, CD20+ B cells, antibody 1 nM
T2 construct: whole, on cells; also called cynomolgus monkey B cells
Summary of the method: (§1)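 Cynomolgus PBMC from fresh blood were isolated by Ficoll and co-stained with cross-reactive anti-human CD20 and chimeric antibody at 1, 10 or 100 nM for 1 h at room temperature. Bound antibody was detected by APC anti-human IgG Fc. Values are the percentage of antibody-positive cells within the gated CD20+ B-cell population, by FACS.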

[2] = molecular target: T1, monkey CD22 protein (ACROBiosystems, …); experiment: ELISA, coated monkey CD22 protein, antibody 10 nM
Summary of the method: (§2)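 Direct ELISA: chimeric antibody binding to CD22 coated at 2 μg/mL, with a 37° C, 2 h antibody step and HRP/TMB detection.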

[3] = molecular target: T1, monkey CD22 protein (ACROBiosystems, …); experiment: ELISA, coated monkey CD22 protein, antibody 0.01 nM
Summary of the method: as §2

[4] = molecular target: T1, monkey CD22 protein (ACROBiosystems, …); experiment: ELISA, coated monkey CD22 protein, antibody 0.001 nM
Summary of the method: as §2

[5] = molecular target: T1, monkey CD22 protein (ACROBiosystems, …); experiment: ELISA, coated monkey CD22 protein, antibody 0.0001 nM
Summary of the method: as §2

[6] = molecular target: T1, monkey CD22 protein (ACROBiosystems, …); experiment: ELISA, coated monkey CD22 protein, antibody 100 nM
Summary of the method: as §2

[7] = molecular target: T2, CD22 on cynomolgus monkey peripheral …; experiment: FACS, cynomolgus PBMC, CD20+ B cells, antibody 100 nM
Summary of the method: as §1

[8] = molecular target: T1, monkey CD22 protein (ACROBiosystems, …); experiment: ELISA, coated monkey CD22 protein, antibody 0.00001 nM
Summary of the method: as §2

[9] = molecular target: T2, CD22 on cynomolgus monkey peripheral …; experiment: FACS, cynomolgus PBMC, CD20+ B cells, antibody 10 nM
Summary of the method: as §1

[10] = molecular target: T1, monkey CD22 protein (ACROBiosystems, …); experiment: ELISA, coated monkey CD22 protein, antibody 0.1 nM
Summary of the method: as §2

Binder | Proportion of chimeric antibody positive cells to B cells (%) [1] | OD450 [2] | OD450 [3] | OD450 [4] | OD450 [5] | OD450 [6] | Proportion of chimeric antibody positive cells to B cells (%) [7] | OD450 [8] | Proportion of chimeric antibody positive cells to B cells (%) [9] | OD450 [10]
B1 | 20% | 0.08 OD450 | 0.06 OD450 | 0.07 OD450 | 0.06 OD450 | 0.11 OD450 | 34% | 0.06 OD450 | 20% | 0.06 OD450
B2 | 19% | 0.07 OD450 | 0.06 OD450 | 0.05 OD450 | 0.05 OD450 | 0.07 OD450 | 26% | 0.05 OD450 | 21% | 0.05 OD450
B3 | 16% | 0.06 OD450 | 0.05 OD450 | 0.05 OD450 | 0.05 OD450 | 0.06 OD450 | 23% | 0.05 OD450 | 20% | 0.05 OD450
B4 | 27% | 0.56 OD450 | 0.13 OD450 | 0.06 OD450 | 0.05 OD450 | 0.72 OD450 | 64% | 0.05 OD450 | 56% | 0.34 OD450
B5 | 19% | 1.12 OD450 | 0.38 OD450 | 0.12 OD450 | 0.06 OD450 | 1.18 OD450 | 71% | 0.06 OD450 | 43% | 1.25 OD450
B6 | 21% | 0.06 OD450 | 0.05 OD450 | 0.05 OD450 | 0.05 OD450 | 0.08 OD450 | 22% | 0.05 OD450 | 21% | 0.05 OD450
B7 | 40% | 2.28 OD450 | 1.78 OD450 | 0.63 OD450 | 0.16 OD450 | 2.33 OD450 | 46% | 0.08 OD450 | 41% | 2.21 OD450
B8 | 22% | 2 OD450 | 0.85 OD450 | 0.18 OD450 | 0.07 OD450 | 1.91 OD450 | 66% | 0.06 OD450 | 28% | 1.73 OD450
B9 | 38% | 1.89 OD450 | 0.94 OD450 | 0.27 OD450 | 0.1 OD450 | 2.77 OD450 | 60% | 0.07 OD450 | 48% | 1.6 OD450
B10 | 33% | 2.41 OD450 | 1.54 OD450 | 0.47 OD450 | 0.14 OD450 | 2.2 OD450 | 93% | 0.08 OD450 | 89% | 2.24 OD450
